Values quoted from earlier work as cited in publication PMC11087986.
Like-named read-outs stand apart in the source and are kept apart here.

Columns and labels:
[1] = target: RBM39 RRM1-RRM2 (Homo sapiens) (UniProt Q14498)
[2] = target: RBM39 RRM1-RRM2 (Homo sapiens) (UniProt Q14498); remark: listed apart in the source
[3] = target: RBM39 RRM1-RRM2 (Homo sapiens) (UniProt Q14498); remark: listed apart in the source

Sequence of UniProt Q14498 (Q14498 153-328): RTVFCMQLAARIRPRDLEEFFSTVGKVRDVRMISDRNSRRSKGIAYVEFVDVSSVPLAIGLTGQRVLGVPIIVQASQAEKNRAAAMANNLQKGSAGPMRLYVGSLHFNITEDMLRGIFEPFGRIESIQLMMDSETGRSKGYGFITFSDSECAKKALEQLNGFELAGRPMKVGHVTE

**Q.** With DCAF15 (from UniProt Q66K64) as the substance, how does the Kd [1] read?
**A.** 120 nM

**Q.** And the Kd [2]?
**A.** 160 nM

**Q.** What about the Kd [3] of the same substance?
**A.** 4600 nM
